Drawing on patent US20210009671A1, this text covers IC50, TNFα-induced Caspase 3 activity in U937 cells for 1 substance.

The assay has as its target Recombinant human TNFα (R&D Systems) (human) (UniProt P01375).

Sequence of Recombinant human TNFα (R&D Systems) (human) (P01375 77-233 limits assumed): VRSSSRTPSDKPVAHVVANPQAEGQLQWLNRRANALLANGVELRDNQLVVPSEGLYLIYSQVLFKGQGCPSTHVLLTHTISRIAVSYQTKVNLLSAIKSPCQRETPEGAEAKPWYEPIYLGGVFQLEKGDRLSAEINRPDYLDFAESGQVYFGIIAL

As for etanercept (Fc fusion), the IC50, TNFα-induced Caspase 3 activity in U937 cells was 144 pM.
